Source: the RNAGym collection of RNA variant scans (doi:10.7554/elife.80360)

B1: CPEB3 Ribozyme (parent)
chain: GGGGGCCACAGCAGAAGCGUUCACGUCGCGGCCCCUGUCAGAUUCUGGUGAAUCUGCGAAUUCUGCUGU

Variants of: B1
Experiment: self-cleavage, relative activity (ratio to wild type); higher = more cleavage; co-transcriptional

| Variant | self-cleavage |
| --- | --- |
| C32A G68A | 0.994 |
| C33G G56C | 0.326 |
| C32G C66G | 0.227 |
| G31U U69C | 1.02 |
| G31U U69A | 0.876 |
| C32U C33A | 0.593 |
| C32U C33U | 0.861 |
| C32U C34A | 0.541 |
| C33G A59C | 0.326 |
| C32G U53A | 0.266 |
| C33A U55A | 0.486 |
| C33A U55G | 0.319 |
| C33A U55C | 0.438 |
| C32A U55G | 0.451 |
| C32A U55A | 0.622 |
| C32A U55C | 0.393 |
| C33A A51U | 0.46 |
| C33A A51C | 0.366 |
| C33A A51G | 0.7 |
| C32U C35G | 0.349 |
| C33A G50A | 0.938 |
| C33A G50C | 0.92 |
| C32A U64G | 0.726 |
| C32A U64C | 0.499 |

| Variant | self-cleavage |
| --- | --- |
| C32A U64A | 0.519 |
| C32U C63A | 0.886 |
| C32U C63U | 0.956 |
| C32A G47A | 0.877 |
| C32A G47C | 0.869 |
| C32A G41U | 0.362 |
| C32A G41A | 0.344 |
| C32A C34A | 0.229 |
| C32A C34U | 0.362 |
| C32U A51C | 0.964 |
| C32U C45G | 0.975 |
| C32U C45U | 1.01 |
| C32U C45A | 0.983 |
| C32G U36G | 0.191 |
| C32G U46G | 0.522 |
| C32G U46A | 0.492 |
| C32U G56A | 0.94 |
| C32U G56U | 0.971 |
| C32G C33U | 0.287 |
| C32G C33G | 0.179 |
| C32G C33A | 0.309 |
| C32A C35A | 0.26 |
| C32A A59C | 0.372 |
| C32A A59G | 0.61 |

| Variant | self-cleavage |
| --- | --- |
| C32G A51C | 0.353 |
| C32G A51U | 0.419 |
| C32G U38C | 0.235 |
| C32G U38A | 0.443 |
| C32G U38G | 0.207 |
| C33A U36C | 0.785 |
| C33A U36A | 0.157 |
| C33A U36G | 0.256 |
| C32G | 0.584 |
| C32A | 0.866 |
| C32U | 0.993 |
| C33A U62A | 0.566 |
| C33G C66U | 0.649 |
| C33G C66A | 0.526 |
| C32G G37U | 0.149 |
| C32G G37A | 0.195 |
| C32G G37C | 0.184 |
| C32G U43A | 0.238 |
| C32G U43G | 0.331 |
| C32G U43C | 0.364 |
| C32G U64A | 0.235 |
| C32G U64G | 0.253 |
| C33A A59C | 0.322 |
| C32G C35G | 0.303 |

| Variant | self-cleavage |
| --- | --- |
| C32G C35A | 0.143 |
| C32U U43A | 0.933 |
| C32U U43G | 0.963 |
| C32U U43C | 0.947 |
| C33G C35A | 0.304 |
| C33G C35G | 0.318 |
| C32A G50A | 0.693 |
| C32A G50C | 0.716 |
| C32A U67A | 0.956 |
| C32A U67C | 0.882 |
| C32A U67G | 0.936 |
| C32A C66U | 0.903 |
| C32A C66A | 0.698 |
| C32G U62G | 0.271 |
| C32G U62C | 0.306 |
| C32G U62A | 0.26 |
| C32A U62C | 0.339 |
| G31U U67G | 0.919 |
| G31U U67A | 0.89 |
| C32A A40C | 0.321 |
| C32A A40U | 0.376 |
| C32A A40G | 0.711 |
| C32U G41A | 0.845 |
| G31U U62C | 0.226 |

| Variant | self-cleavage |
| --- | --- |
| G31U U62G | 0.274 |
| C33A C57A | 0.345 |
| C33A C57G | 0.263 |
| C33G C45A | 0.47 |
| C33G C45U | 0.641 |
| C33G C45G | 0.537 |
| C33G A40U | 0.273 |
| C33G A40C | 0.324 |
| C32U U38C | 0.955 |
| C32G G48U | 0.562 |
| C32G G48A | 0.62 |
| G31U U64C | 0.427 |
| G31U U64A | 0.446 |
| G31U U43G | 0.454 |
| C32A A60U | 0.257 |
| C32A A60C | 0.27 |
| C32A A52C | 0.374 |
| C32A A52U | 0.645 |
| C32U G65A | 0.988 |
| C32U G65C | 0.778 |
| C32G G47C | 0.683 |
| C32G G47A | 0.673 |
| C33A G65C | 0.529 |
| C33A A40G | 0.748 |

| Variant | self-cleavage |
| --- | --- |
| C32A C57U | 0.25 |
| C32A C57G | 0.27 |
| C32G C54G | 0.335 |
| C32G C54A | 0.356 |
| C33A U53C | 0.48 |
| C33A U53A | 0.392 |
| C33A U53G | 0.346 |
| C33G A51G | 0.739 |
| C33G A51U | 0.415 |
| G31U U55C | 0.459 |
| G31U U55G | 0.274 |
| C32A U43A | 0.345 |
| C32A U43C | 0.441 |
| C33G A52C | 0.461 |
| C33G A52G | 0.663 |
| C33A U69C | 1.04 |
| C33A U69G | 0.988 |
| C32A G58C | 0.841 |
| C32A G58A | 0.693 |
| C32U U44A | 0.948 |
| C33A U64A | 0.847 |
| C33A U64G | 0.672 |
| C33A U64C | 0.798 |
| C32A C33A | 0.308 |

| Variant | self-cleavage |
| --- | --- |
| C32A C33U | 0.231 |
| C32G C34U | 0.363 |
| C32G U49C | 0.543 |
| C32G U49A | 0.658 |
| C32A U44A | 0.357 |
| C32A U44G | 0.469 |
| G31U U53A | 0.545 |
| G31U U53G | 0.411 |
| C32G G50C | 0.299 |
| C32G G50U | 0.503 |
| C32G C57G | 0.263 |
| C33G G58C | 0.703 |
| C33G G58U | 0.821 |
| C32A C54A | 0.328 |
| C32A C54G | 0.333 |
| C32A C54U | 0.803 |
| C32A G56U | 0.683 |
| C32A G56A | 0.674 |
| C32A G65A | 0.638 |
| C33A G41A | 0.349 |
| C33A G41U | 0.562 |
| C32U C54A | 0.861 |
| C32U C54U | 0.966 |
